The target of the data set is T1, PUF4 RNA-binding domain (Saccharomyces cerevisiae, UniProt P25339 537-888).
T1 sequence: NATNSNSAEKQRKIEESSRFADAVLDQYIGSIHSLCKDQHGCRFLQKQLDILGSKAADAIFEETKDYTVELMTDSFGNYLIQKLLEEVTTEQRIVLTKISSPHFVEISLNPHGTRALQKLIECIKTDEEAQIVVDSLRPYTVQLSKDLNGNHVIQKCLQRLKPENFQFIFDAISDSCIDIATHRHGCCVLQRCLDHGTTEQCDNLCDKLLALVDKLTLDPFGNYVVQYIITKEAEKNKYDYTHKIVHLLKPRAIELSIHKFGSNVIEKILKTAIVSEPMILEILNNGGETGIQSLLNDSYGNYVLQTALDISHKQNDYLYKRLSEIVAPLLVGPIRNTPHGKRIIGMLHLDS
Nature of the data set: Mg; RNA-MaP; 20 mM Na-HEPES pH 7.4, 30 mM KOAc, 0.75 mM MgCl2, 0.1% Tween-20, 5% glycerol, 0.1 mg/mL BSA, 2 mM DTT; 25 C; 0.0125-409.6 nM protein. Conditions: tags: N-His6-TEV cleaved; C-SNAP kept, Cy3B-labelled; label: tethered on chip by stalled RNA polymerase.

In article PMC9352680, “A comprehensive thermodynamic model for RNA binding by the Saccharomyces cerevisiae Pumilio protein PUF4” one finds Kd data, which are given here for 42 molecules.

Positions count from the first letter of the chain named. In names and notes the source's numbering stands.

B1: Id_ii_S2_P3E.2_K3.1_C3.2_[C-2A]_H3.1_A3.1_F3.1_T3.2_[A10T] (ssRNA)
RNA: UUUGAUUAAUAUGAUAUCGUUCUUUCUAUUGUAUAUAUUUUCUUUCUCGAUAUCAUAUUAAUCUUU
Regarding B1, the affinity, expressed as Kd, was 3.05 nM.

B2: Id_ii_S2_P3E.2_K3.1_C3.2_[T-1A]_H3.1_A3.1_F3.1_T3.2_[T9A]_[A10T] (ssRNA)
RNA: B1 RNA with A28C, U29A, U38A
As for B2, the Kd stood at 2.96 nM.

B3: Id_ii_S2_P3E.2_K3.1_C3.2_[T-1C]_H3.1_A3.1_F3.1_T3.2_[T9A]_[A10C] (ssRNA)
RNA: B1 RNA with A28C, U29C, U38A, U39C
B3 displayed a Kd of 2.58 nM.

B4: Id_ii_S2_P3E.2_K3.1_C3.2_[T-1C]_H3.1_A3.1_F3.1_T3.2_[T9A]_[A10G] (ssRNA)
RNA: B1 RNA with A28C, U29C, U38A, U39G
In turn, B4 yielded a Kd of 4.04 nM.

B5: Id_ii_S2_P3E.2_K3.1_C3.2_[T-1G]_H3.1_A3.1_F3.1_T3.2_[T9A]_[A10T] (ssRNA)
RNA: B1 RNA with A28C, U29G, U38A
Consider B5, for which binding was characterised by a dissociation constant (Kd) of 1.85 nM. Against the preceding molecule, the Kd is about 2.2-fold lower.

B6: Id_ii_S2_P3E.2_K3.1_C3.2_H3.1_A3.1_F3.1_T3.2_[A10T] (ssRNA)
RNA: B1 RNA with A28C
For B6, the dissociation constant (Kd) turned out to be 1.32 nM.

B7: Id_ii_S2_P3E.3_K3.2_C3.2_[C-2G]_H3.2_A3.1_F3.1_T3.2_[T9C]_[A10G] (ssRNA)
RNA: B1 RNA with A28G, G31A, U38C, U39G
Take B7: the Kd amounted to 291 nM.

B8: If_S2_P3E.2_K3.1_C3.2_H3.1_A3.1_F3.1_T3.2 (ssRNA)
RNA: B1 RNA with A28C, U39A
With B8, binding was characterised by a dissociation constant (Kd) of 1.16 nM.

B9: Id_ii_S2_P3E.3_K3.2_C3.2_[C-2G]_[T-1C]_H3.2_A3.1_F3.1_T3.2_[T9A]_[A10C] (ssRNA)
RNA: B1 RNA with A28G, U29C, G31A, U38A, U39C
B9: the Kd came to 592 nM.

B10: Id_ii_S2_P3E.3_K3.2_C3.2_[C-2G]_H3.2_A3.1_F3.1_T3.2_[T9C]_[A10C] (ssRNA)
RNA: B1 RNA with A28G, G31A, U38C, U39C
As for B10, the affinity, expressed as Kd, was 31.2 nM.

B11: Id_ii_S2_P3E.2_K3.1_C3.2_[T-1C]_H3.1_A3.1_F3.1_T3.2_[A10T] (ssRNA)
RNA: B1 RNA with A28C, U29C
Regarding B11, the Kd was found to be 1.22 nM.

B12: Id_ii_S2_P3E.2_K3.1_C3.2_[T-1A]_H3.1_A3.1_F3.1_T3.2_[A10T] (ssRNA)
RNA: B1 RNA with A28C, U29A
In the case of B12, the affinity, expressed as Kd, was 1.78 nM. The Kd values of the last two molecules are within 1.5-fold of each other.

B13: Id_ii_S2_P3E.3_K3.2_C3.2_[C-2G]_[T-1G]_H3.2_A3.1_F3.1_T3.2_[T9A] (ssRNA)
RNA: B1 RNA with A28G, U29G, G31A, U38A, U39A
As for B13, the Kd worked out at 872 nM. Compared with the last molecule, the Kd is about 490-fold higher.

B14: Id_ii_S2_P3E.3_K3.2_C3.2_[C-2G]_H3.2_A3.1_F3.1_T3.2_[T9A]_[A10T] (ssRNA)
RNA: B1 RNA with A28G, G31A, U38A
Turning to B14, binding was put at a Kd of 36.2 nM.

B15: Id_ii_S2_P3E.3_K3.2_C3.2_[C-2G]_H3.2_A3.1_F3.1_T3.2_[A10G] (ssRNA)
RNA: B1 RNA with A28G, G31A, U39G
For B15, the Kd stood at 22.9 nM.

B16: Id_ii_S2_P3E.2_K3.1_C3.2_H3.1_A3.1_F3.1_T3.2_[A10C] (ssRNA)
RNA: B1 RNA with A28C, U39C
As to B16, the Kd amounted to 1.61 nM.

B17: Id_ii_S2_P3E.2_K3.1_C3.2_H3.1_A3.1_F3.1_T3.2_[T9A]_[A10T] (ssRNA)
RNA: B1 RNA with A28C, U38A
In turn, B17 displayed a Kd of 1.9 nM. The Kd values of the last two molecules are within 1.5-fold of each other.

B18: Id_ii_S2_P3E.2_K3.1_C3.2_[T-1G]_H3.1_A3.1_F3.1_T3.2_[T9G]_[A10G] (ssRNA)
RNA: B1 RNA with A28C, U29G, U38G, U39G
In turn, B18 registered a Kd of 10.2 nM.

B19: Id_ii_S2_P3E.3_K3.2_C3.2_[C-2G]_[T-1C]_H3.2_A3.1_F3.1_T3.2_[A10T] (ssRNA)
RNA: B1 RNA with A28G, U29C, G31A
B19 gave a dissociation constant Kd of 86.4 nM. Against the preceding molecule, the Kd is about 8.5-fold higher.

B20: Id_ii_S2_P3E.2_K3.1_C3.2_[T-1A]_H3.1_A3.1_F3.1_T3.2_[T9C]_[A10T] (ssRNA)
RNA: B1 RNA with A28C, U29A, U38C
The molecule B20 displayed a dissociation constant Kd of 5.2 nM.

B21: Id_ii_S2_P3E.2_K3.1_C3.2_[T-1C]_H3.1_A3.1_F3.1_T3.2_[T9A]_[A10T] (ssRNA)
RNA: B1 RNA with A28C, U29C, U38A
As for B21, the affinity, expressed as Kd, was 1.48 nM. This Kd is about 3.5-fold lower than that of the molecule before.

B22: Id_ii_S2_P3E.2_K3.1_C3.2_H3.1_A3.1_F3.1_T3.2_[T9A] (ssRNA)
RNA: B1 RNA with A28C, U38A, U39A
The molecule B22 had a dissociation constant (Kd) of 2.73 nM.

B23: Id_ii_S2_P3E.3_K3.2_C3.2_[C-2G]_[T-1G]_H3.2_A3.1_F3.1_T3.2_[T9A]_[A10C] (ssRNA)
RNA: B1 RNA with A28G, U29G, G31A, U38A, U39C
In turn, B23 registered a Kd of 1450 nM.

B24: Id_ii_S2_P3E.2_K3.1_C3.2_[T-1C]_H3.1_A3.1_F3.1_T3.2_[A10C] (ssRNA)
RNA: B1 RNA with A28C, U29C, U39C
Turning to B24, the Kd worked out at 0.998 nM.

B25: Id_ii_S2_P3E.2_K3.1_C3.2_[C-2A]_H3.1_A3.1_F3.1_T3.2 (ssRNA)
RNA: B1 RNA with U39A
Regarding B25, binding was characterised by a dissociation constant (Kd) of 5.13 nM.

B26: Id_ii_S2_P3E.2_K3.1_C3.2_H3.1_A3.1_F3.1_T3.2_[T9G]_[A10T] (ssRNA)
RNA: B1 RNA with A28C, U38G
Consider B26, for which the Kd turned out to be 4.32 nM.

B27: Id_ii_S2_P3E.2_K3.1_C3.2_[T-1C]_H3.1_A3.1_F3.1_T3.2_[T9C]_[A10G] (ssRNA)
RNA: B1 RNA with A28C, U29C, U38C, U39G
With B27, the affinity, expressed as Kd, was 4.24 nM.

B28: Id_ii_S2_P3E.2_K3.1_C3.2_[T-1A]_H3.1_A3.1_F3.1_T3.2 (ssRNA)
RNA: B1 RNA with A28C, U29A, U39A
As to B28, binding was characterised by a dissociation constant (Kd) of 1.35 nM.

B29: Id_ii_S2_P3E.2_K3.1_C3.2_H3.1_A3.1_F3.1_T3.2_[A10G] (ssRNA)
RNA: B1 RNA with A28C, U39G
Molecule B29 showed a Kd of 2.02 nM. This Kd and that of the molecule before are within 1.5-fold of each other.

B30: Id_ii_S2_P3E.3_K3.2_C3.2_[C-2G]_[T-1G]_H3.2_A3.1_F3.1_T3.2_[A10T] (ssRNA)
RNA: B1 RNA with A28G, U29G, G31A
B30 returned a Kd of 137 nM. Compared with the last molecule, the Kd is about 68-fold higher.

B31: Id_ii_S2_P3E.2_K3.1_C3.2_H3.1_A3.1_F3.1_T3.2_[T9G]_[A10C] (ssRNA)
RNA: B1 RNA with A28C, U38G, U39C
In turn, B31 gave a Kd of 2.46 nM.

B32: Id_ii_S2_P3E.2_K3.1_C3.2_[T-1G]_H3.1_A3.1_F3.1_T3.2_[A10T] (ssRNA)
RNA: B1 RNA with A28C, U29G
As to B32, the Kd was found to be 1.39 nM.

B33: Id_ii_S2_P3E.2_K3.1_C3.2_[T-1A]_H3.1_A3.1_F3.1_T3.2_[T9A] (ssRNA)
RNA: B1 RNA with A28C, U29A, U38A, U39A
On to B33, for which the Kd worked out at 3.89 nM. Against the preceding molecule, the Kd is about 2.8-fold higher.

B34: Id_ii_S2_P3E.3_K3.2_C3.2_[C-2G]_[T-1C]_H3.2_A3.1_F3.1_T3.2_[T9C]_[A10C] (ssRNA)
RNA: B1 RNA with A28G, U29C, G31A, U38C, U39C
Consider B34, for which the dissociation constant Kd was 329 nM.

B35: Id_ii_S2_P3E.2_K3.1_C3.2_[T-1A]_H3.1_A3.1_F3.1_T3.2_[T9A]_[A10G] (ssRNA)
RNA: B1 RNA with A28C, U29A, U38A, U39G
As for B35, binding was put at a Kd of 15.2 nM. Against the preceding molecule, the Kd is about 22-fold lower.

B36: Id_ii_S2_P3E.2_K3.1_C3.2_[T-1A]_H3.1_A3.1_F3.1_T3.2_[T9G]_[A10T] (ssRNA)
RNA: B1 RNA with A28C, U29A, U38G
In turn, B36 came in with a Kd of 3.93 nM.

B37: Id_ii_S2_P3E.2_K3.1_C3.2_[T-1G]_H3.1_A3.1_F3.1_T3.2_[T9A]_[A10G] (ssRNA)
RNA: B1 RNA with A28C, U29G, U38A, U39G
Take B37: binding was put at a Kd of 7.62 nM. This Kd is about 1.9-fold higher than that of the molecule before.

B38: Id_ii_S2_P3E.2_K3.1_C3.2_[T-1A]_H3.1_A3.1_F3.1_T3.2_[A10C] (ssRNA)
RNA: B1 RNA with A28C, U29A, U39C
On to B38, for which binding was characterised by a dissociation constant (Kd) of 2.36 nM.

B39: Id_ii_S2_P3E.2_K3.1_C3.2_[T-1C]_H3.1_A3.1_F3.1_T3.2_[T9G]_[A10T] (ssRNA)
RNA: B1 RNA with A28C, U29C, U38G
Molecule B39 gave a dissociation constant Kd of 2.32 nM.

Take UCUCUUUGUUUUAGUAUCUCUU (ssRNA) [Ib_S1_P5E.1_K5.1_C5.1_H5.1_[A4T]_A5.1_F5.1_[T8G]_T5.1]: the Kd turned out to be 70.8 nM.

As for UCUCUUUGUGUUACUAUCUCUU (ssRNA) [Ib_S1_P5E.1_K5.1_C5.1_H5.1_[A4G]_A5.1_F5.1_[T8C]_T5.1], the dissociation constant (Kd) came out at 51.5 nM.

Molecule UCUCUUUGCAUUACUAUCUCUU (ssRNA) [Ib_S1_P5E.1_K5.1_C5.1_H5.1_[T3C]_A5.1_F5.1_[T8C]_T5.1] displayed a Kd of 1370 nM. This Kd is about 27-fold higher than that of the molecule before.
